From paper PMC12525626, “Phosphorylation as a candidate regulatory mechanism for effector recruitment to tankyrase” (Royal Society Open Science, 2025)
Square brackets hold non-standard residues; d marks the D form. 5(6)‑carboxyfluorescein = 5(6)-carboxyfluorescein; pS = N[C@@H](COP(=O)(O)O)C(=O)O; βAla = NCCC(=O)O

B1: MDC1 phospho-TBM1 peptide for co-crystallization (acetyl-943ERDTQRGEPEGG-pS-QDQ958-NH2) (peptide)
peptide: Ac-ERDTQRGEPEGG[pS]QDQ-NH2
SMILES: CC(=O)N[C@@H](CCC(=O)O)C(=O)N[C@@H](CCCNC(=N)N)C(=O)N[C@@H](CC(=O)O)C(=O)N[C@H](C(=O)N[C@@H](CCC(N)=O)C(=O)N[C@@H](CCCNC(=N)N)C(=O)NCC(=O)N[C@@H](CCC(=O)O)C(=O)N1CCC[C@H]1C(=O)N[C@@H](CCC(=O)O)C(=O)NCC(=O)NCC(=O)N[C@@H](COP(=O)(O)O)C(=O)N[C@@H](CCC(N)=O)C(=O)N[C@@H](CC(=O)O)C(=O)N[C@@H](CCC(N)=O)C(N)=O)[C@@H](C)O
notes: Mediator of DNA damage checkpoint protein 1 (MDC1), human, residues 943-958 around TBM1; also called phospho-MDC1 peptide; source: synthetic peptide (JPT, Berlin; HPLC-purified)
B2: MDC1 TBM1 peptide, non-phosphorylated (5(6)-carboxyfluorescein-βAla-QRGEPEGGSQ-NH2) (peptide)
peptide: {5(6)‑carboxyfluorescein-βAla}-QRGEPEGGSQ-NH2
notes: also called Non-phosphorylated TBM1; source: synthetic peptide (JPT, Berlin; crude stock, greater than 70% pure by HPLC)

Columns and labels:
[1] = target: T1, Human TNKS2 ARC4 (residues 488-649), wild type (human, UniProt Q9H2K2 488-649); assay: crystal structure; TNKS2 ARC4 at 20 mg/ml with 1.5-fold molar excess of phospho-MDC1 peptide in 25 mM HEPES-NaOH pH 7.5, 100 mM NaCl, 2 mM TCEP; sitting drop, 4°C, 0.1 M Na cacodylate pH 6.5, 0.2 M Na acetate, 30% PEG 8000; molecular replacement; conditions: both partners purified
T1 construct: Tankyrase-2 (TNKS2), human, ankyrin repeat cluster 4, residues 488-649 of NM_025235.2, from the construct pETM30-2-TNKS2 ARC4; Monomeric by SEC-MALS; also called WT ARC4; tankyrase ankyrin repeat cluster 4; source: E. coli BL21-CodonPlus(DE3)-RIL, purified (HisTrap, TEV cleavage, second HisTrap, Superdex 75)
T1 sequence (looked up): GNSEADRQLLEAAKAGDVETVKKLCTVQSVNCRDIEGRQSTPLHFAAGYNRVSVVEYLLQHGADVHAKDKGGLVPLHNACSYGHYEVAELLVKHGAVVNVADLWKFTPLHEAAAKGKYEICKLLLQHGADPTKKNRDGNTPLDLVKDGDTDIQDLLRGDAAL

[2] = target: T1, Human TNKS2 ARC4 (residues 488-649), …; assay: fluorescence polarisation; carboxyfluorescein-labelled MDC1 TBM1 peptides with TNKS2 ARC4 protein (no-protein wells as baseline); POLARstar Omega plate reader; n = 3 separate experiments in technical duplicate; one-site total binding model, standard errors of the fit; conditions: both partners purified

| Binder | binding result [1] | Kd [2] [µM] |
| --- | --- | --- |
| B1 | binds |  |
| B2 |  | 4.5 |
